Paper doi:10.1101/2020.10.08.20209114 (medRxiv, 2020)

B1: monoclonal antibody 7F3 (antibody, V domains shown)
VH: EVQLVESGGGLVKPGRSLRLSCTASGFTFGDYAMSWFRQAPGKGLEWVGFIRSKAYGGTTEYAASVKGRFTISRDDSKSIAYLQMNSLKTEDTAVYYCTRDRYARYDILTGLSPAGADYFYYAMDVWGQGTTVTVSS
VL: EIVLTQSPATLSLSPGERATLSCRASQSVSSYLAWYQQKPGQAPRLLIYDASNRATGIPARFSGSGSGTDFTLTISSLEPEDFAVYYCQQRSNWPQYTFGQGTKLEIK
B2: monoclonal antibody 4L12 (antibody, V domains shown)
VH: EVQLVESGGGLVQPGGSLRLSCAASGITVSSNYMNWVRQAPGRGLEWVSLLYSGGSTYYADSVKGRFTISRDNSKNTLYLQMNSLRAEDTAVYYCARDLITYGMDVWGQGTTVTVSS
VL: AIQLTQSPSSLSASVGDRVTITCRASQGISSYLAWYQQKPGKAPKLLIYAASTLQSGVPSRFSGSGSGTDFTLTISSLQPEDFATYYCQQLNSYPPLTFGGGTKVEIK

Target: SARS-CoV-2 S2 protein (SARS-CoV-2 (Wuhan-Hu-1 assumed), UniProt P0DTC2)
Assay: ELISA

Binder	binding result
B1	no binding
B2	no binding
